{"source": "paper PMC11705696"}
{"target": "AjFoxO (rAjFoxO) (Apostichopus japonicus, UniProt A0A2G8KG36 1-567)", "experiment": "EMSA"}
{"binder": "AjATG4 Mut probe (dsDNA) DNA 1: TTTACGGCGCGACAAAACGTCATCAACC DNA 2: GGTTGATGACGTTTTGTCGCGCCGTAAA", "binding result": "no binding"}
{"binder": "AjLC3 Mut probe (dsDNA) DNA 1: ATATCCTTTTGTGACACCTTCGGAAAG DNA 2: CTTTCCGAAGGTGTCACAAAAGGATAT", "binding result": "no binding"}
{"binder": "AjLC3 WT probe (dsDNA) DNA 1: ATATCCTTTTGTCTGTTTTTCGGAAAG DNA 2: CTTTCCGAAAAACAGACAAAAGGATAT", "binding result": "binds"}
{"binder": "AjATG4 WT probe (dsDNA) DNA 1: TTTACGGCGCCTGTTTACGTCATCAACC DNA 2: GGTTGATGACGTAAACAGGCGCCGTAAA", "binding result": "binds"}
